Measured values taken from patent US20260166085A1 (BEAM THERAPEUTICS, published 2026).
Where a chain is given by its changes, count along the chain named. Values belong to the binder of their own block, whether it stands above or below them.

Columns and labels:
[1] = target: T1, Wild type CD117 expressed on cells (M07e cells, unedited human CD34+ HSPCs) (human, UniProt P10721 26-976); test: cell-based or functional assay
[2] = target: T2, Wild type CD117 purified protein (human, UniProt P10721 26-520, limits assumed); test: monovalent KD, CD117 titrated (FIGS. 73A-73E)
T2 construct: Protein used in BLI/kinetics and cryo-EM; also called wt CD117; Wt CD117

[3] = target: T1, Wild type CD117 expressed on cells …; test: flow cytometry on M07e cells, AF647 secondary (FIG. 76A)
[4] = target: T1, Wild type CD117 expressed on cells …; test: summary Table 75 (repeats Table 73)
[5] = target: T2, Wild type CD117 purified protein; test: summary Table 75 (repeats Table 71)
[6] = target: T3, CC128 variant of CD117 (Y259C + N260D) expressed on cells (M07e, CD34+ HSPCs) (human, UniProt P10721 26-976); test: binding to edited M07e cells (Table 8B)
T3 construct: Edited cell pools also hold minor alleles (Y259C alone, N260D alone); also called CC128-edited CD117; CC128-M07e

[7] = target: T2, Wild type CD117 purified protein; test: KD, method not stated (Table 8B)
Cyno CD117 = target: T4, Cyno CD117 (cynomolgus, UniProt F6V858 26-520 (rhesus entry)); test: KD, method not stated (Table 8B)
T4 construct: also called cynomolgus CD117

[8] = target: T2, Wild type CD117 purified protein; test: binding kinetics grade, FIGS. 55A-55C
[9] = target: T1, Wild type CD117 expressed on cells …; test: flow cytometry (MFI) on M07e cells (FIG. 59)
[10] = target: T1, Wild type CD117 expressed on cells …; test: cell-based or functional assay; remark: listed apart in the source
[11] = target: T2, Wild type CD117 purified protein; test: binding kinetics, antibody 333.3 to 5.2 nM (FIGS. 58A-58D)
[12] = target: CC200 variant of CD117 (S261G) purified protein (human, UniProt P10721 26-520, limits assumed); test: binding kinetics, FIGS. 45A-45K
[13] = target: T2, Wild type CD117 purified protein; test: binding kinetics, FIGS. 45A-45K
[14] = target: T5, CC128 variant of CD117 (Y259C + N260D) purified protein (human, UniProt P10721 26-520, limits assumed); test: binding kinetics, FIGS. 45A-45K
T5 construct: also called CC128-edited CD117 as purified protein

[15] = target: T1, Wild type CD117 expressed on cells …; test: flow cytometry on M07e cells expressing wild type CD117, 1 h (FIG. 87A)
[16] = target: T5, CC128 variant of CD117 (Y259C + N260D) …; test: BLI (Octet), CC128 variant on SA biosensor, antibody titrated 1:2 from 2.5 µM
Protocol: Binding to the CC128 variant of CD117 was determined using streptavidin (SA) biosensors, which were allowed to bind the CC128 variant from a 5 μg/ml solution thereof. The SA biosensors were then titrated with monoclonal antibodies starting at 2.5 μM and using titration increments of 1:2. Data was analyzed using the Octet Analysis Studio Software.

[17] = target: wild type CD117 extracellular domain (ECD) protein (human, UniProt P10721 26-524); test: BLI (Octet), antibody on AHC biosensor, CD117 ECD titrated 1:2 from 345 nM
Protocol: The AHC biosensor data was analyzed using Octet Analysis Studio software.

[18] = target: T6, CC89 variant of CD117 (T144A) on M07e cells (human, UniProt P10721 26-976); test: binding to edited M07e cells (Table 8B)
T6 construct: also called CC89-M07e
T6 sequence (P10721 26-976 T144A limits assumed): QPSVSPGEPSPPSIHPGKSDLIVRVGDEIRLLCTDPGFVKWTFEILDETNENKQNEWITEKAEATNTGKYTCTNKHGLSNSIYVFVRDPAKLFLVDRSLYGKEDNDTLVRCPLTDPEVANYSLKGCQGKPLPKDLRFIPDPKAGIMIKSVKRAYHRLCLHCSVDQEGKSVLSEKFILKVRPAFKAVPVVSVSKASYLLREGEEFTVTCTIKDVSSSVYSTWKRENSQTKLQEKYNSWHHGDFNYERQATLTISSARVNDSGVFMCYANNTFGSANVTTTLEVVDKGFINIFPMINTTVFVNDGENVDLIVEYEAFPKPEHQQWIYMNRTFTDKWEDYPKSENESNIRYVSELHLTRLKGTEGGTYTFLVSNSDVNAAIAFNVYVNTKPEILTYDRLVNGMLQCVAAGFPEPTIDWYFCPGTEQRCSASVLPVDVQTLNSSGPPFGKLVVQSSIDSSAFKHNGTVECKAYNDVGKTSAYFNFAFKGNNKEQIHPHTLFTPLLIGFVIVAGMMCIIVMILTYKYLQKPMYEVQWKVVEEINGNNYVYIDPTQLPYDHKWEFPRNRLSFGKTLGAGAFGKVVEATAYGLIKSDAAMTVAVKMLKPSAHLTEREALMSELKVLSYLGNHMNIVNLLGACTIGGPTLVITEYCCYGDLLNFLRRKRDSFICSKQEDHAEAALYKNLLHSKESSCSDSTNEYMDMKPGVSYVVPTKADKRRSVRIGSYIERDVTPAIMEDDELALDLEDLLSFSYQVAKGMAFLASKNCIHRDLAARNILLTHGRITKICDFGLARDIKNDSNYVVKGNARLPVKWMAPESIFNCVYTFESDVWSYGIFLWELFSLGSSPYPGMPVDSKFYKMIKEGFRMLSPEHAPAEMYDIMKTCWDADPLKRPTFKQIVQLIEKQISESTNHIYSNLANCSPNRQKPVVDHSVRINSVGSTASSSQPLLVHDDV

Chain of CC200 variant of CD117 (S261G) purified protein (P10721 26-520 S261G limits assumed): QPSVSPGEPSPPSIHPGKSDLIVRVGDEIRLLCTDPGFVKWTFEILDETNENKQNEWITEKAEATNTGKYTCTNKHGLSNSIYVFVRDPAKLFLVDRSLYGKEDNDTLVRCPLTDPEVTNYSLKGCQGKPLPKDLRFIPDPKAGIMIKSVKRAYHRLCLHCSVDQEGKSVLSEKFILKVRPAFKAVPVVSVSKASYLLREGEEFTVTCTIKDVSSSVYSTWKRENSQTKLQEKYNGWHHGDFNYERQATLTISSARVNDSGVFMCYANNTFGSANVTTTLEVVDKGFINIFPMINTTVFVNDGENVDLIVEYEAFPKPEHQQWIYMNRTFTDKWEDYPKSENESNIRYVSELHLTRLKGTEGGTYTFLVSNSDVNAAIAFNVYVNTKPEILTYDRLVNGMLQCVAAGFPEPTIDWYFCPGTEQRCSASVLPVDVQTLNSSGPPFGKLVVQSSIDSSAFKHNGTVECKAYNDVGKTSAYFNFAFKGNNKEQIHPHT
T1 sequence (P10721 26-976 limits assumed): as the sequence (P10721 26-976 T144A limits assumed) above, with A119T counted along it
Chain of wild type CD117 extracellular domain (ECD) protein (P10721 26-524 limits assumed): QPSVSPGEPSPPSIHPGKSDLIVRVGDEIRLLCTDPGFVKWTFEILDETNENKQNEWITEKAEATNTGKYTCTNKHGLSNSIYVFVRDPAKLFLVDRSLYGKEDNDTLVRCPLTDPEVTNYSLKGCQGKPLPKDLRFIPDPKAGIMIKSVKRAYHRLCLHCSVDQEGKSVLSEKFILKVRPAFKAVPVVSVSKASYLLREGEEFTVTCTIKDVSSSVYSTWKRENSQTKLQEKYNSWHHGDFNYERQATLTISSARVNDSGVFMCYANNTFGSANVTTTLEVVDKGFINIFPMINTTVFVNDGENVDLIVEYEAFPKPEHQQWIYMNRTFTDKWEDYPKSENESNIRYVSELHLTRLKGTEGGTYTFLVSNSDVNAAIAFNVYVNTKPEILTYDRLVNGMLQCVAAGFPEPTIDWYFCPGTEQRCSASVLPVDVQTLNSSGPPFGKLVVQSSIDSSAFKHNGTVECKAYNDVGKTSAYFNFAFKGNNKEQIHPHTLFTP
T5 sequence (P10721 26-520 Y259C/N260D limits assumed): as the sequence (P10721 26-520 S261G limits assumed) above, with Y234C, N235D, G236S counted along it
T3 sequence (P10721 26-976 Y259C/N260D limits assumed): as the sequence (P10721 26-976 T144A limits assumed) above, with A119T, Y234C, N235D counted along it
T2 sequence (P10721 26-520 limits assumed): as the sequence (P10721 26-520 S261G limits assumed) above, with G236S counted along it
T4 sequence (chain, as listed by the source): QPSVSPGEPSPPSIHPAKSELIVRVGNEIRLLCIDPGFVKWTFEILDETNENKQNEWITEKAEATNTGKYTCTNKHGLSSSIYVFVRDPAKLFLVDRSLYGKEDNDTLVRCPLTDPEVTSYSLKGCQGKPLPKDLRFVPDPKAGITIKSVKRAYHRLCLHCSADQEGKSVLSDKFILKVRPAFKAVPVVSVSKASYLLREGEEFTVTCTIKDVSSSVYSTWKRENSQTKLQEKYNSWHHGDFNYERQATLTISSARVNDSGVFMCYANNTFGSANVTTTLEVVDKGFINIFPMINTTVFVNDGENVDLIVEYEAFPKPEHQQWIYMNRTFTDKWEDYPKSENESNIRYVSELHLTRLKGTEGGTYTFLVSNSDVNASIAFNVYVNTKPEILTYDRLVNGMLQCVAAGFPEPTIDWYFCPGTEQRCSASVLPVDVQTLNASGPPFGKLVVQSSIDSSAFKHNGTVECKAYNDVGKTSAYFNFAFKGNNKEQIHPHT

B1: ABTx196 (antibody, human IgG1, V domains shown)
VH: EVQLVESGGGLVQPGRSLRLSCAASGFTFDDYAMHWVRQAPGKGLEWVSGISWNSGTIGYADSVKGRFTNSRDNAKNSLYLEMNSLRAEDTALYYCAKDSPPGYCSSASCYGAFDIWGQGTMVTVSS
VL: DVVMTQSPGTLSLSPGERATLSCRASQSVSSSYLAWYQQKPGQAPRLLIYGASSRATGIPDRFSGSGSGTDFTLTISRLEPEDFAVYYCQQSETCLTFGGGTKLEIK
IC50 (M), depletion of human CD34+ HSPCs [1]: 1.3e-05 M
Kd [2]: 8.18 nM
koff [2]: 0.000691 s⁻¹
kon [2]: 84400 M⁻¹ s⁻¹
EC50 [3]: 5.21 nM
EC50 [4]: 5.21 nM
Kd [5]: 8.18 nM

B2: ABTx061 (antibody, human IgG1, kappa, V domains shown)
VH: B1 VH with T57S, N70I, E82Q, S100T, P102L, S107T, A108T
VL: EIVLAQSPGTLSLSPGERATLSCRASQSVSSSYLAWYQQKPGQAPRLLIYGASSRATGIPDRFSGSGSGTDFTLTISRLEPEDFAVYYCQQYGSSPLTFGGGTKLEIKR
binding result [6]: no binding
Kd [7]: 18.6 nM
Kd (Cyno CD117): 29.5 nM

B3: ABTx062 (antibody, human IgG1, kappa, V domains shown)
VH: B1 VH with A23S, N70I, E82Q, M122T
VL: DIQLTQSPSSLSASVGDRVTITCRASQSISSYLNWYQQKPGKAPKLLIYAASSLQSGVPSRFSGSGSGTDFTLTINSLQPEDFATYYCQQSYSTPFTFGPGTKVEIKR
binding result [6]: no binding
Kd [7]: 18 nM
Kd (Cyno CD117): 31.8 nM

B4: ABTx025 (antibody, human IgG1, kappa, V domains shown)
VH: B1 VH
VL: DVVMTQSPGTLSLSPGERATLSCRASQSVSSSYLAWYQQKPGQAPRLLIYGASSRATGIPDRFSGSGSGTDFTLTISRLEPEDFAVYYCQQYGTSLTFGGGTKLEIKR
binding result [6]: no binding
Kd [2]: 1470 nM
koff [2]: 0.0509 s⁻¹
kon [2]: 37200 M⁻¹ s⁻¹
Kd [7]: 1.25 nM
Kd (Cyno CD117): 5.31 nM
Kd [5]: 1470 nM

B5: ABTx198 (antibody, human IgG1, V domains shown)
VH: B1 VH with S106A
VL: B1 VL with S92D, E93S, T94L, C95G
IC50 (M), depletion of human CD34+ HSPCs [1]: 3.59e-06 M
Kd [2]: 1.2 nM
koff [2]: 8.74e-05 s⁻¹
kon [2]: 72800 M⁻¹ s⁻¹
EC50 [3]: 5.42 nM
EC50 [4]: 5.42 nM
Kd [5]: 1.2 nM

B7: ABTx253 (antibody, human IgG1, kappa, V domains shown)
VH: QVQLVQSGAAVKKPGESLKISCKGSGYRFTSYWIGWVRQMPGKGLEWMGIIYPGDSDTRYSPSFQGQVTISAGKSISTAYLQWSSLKASDTAMYYCARHGRGYDGYEGAFDIWGQGTMVTVSS
VL: AIQLTQSPSSLSASVGDRVTITCRASQGISSALAWYQQKPGKAPKLLIYDASSLESGVPSRFSGSGSGTDFTLTISSLQPEDFATYYCQQFSSYPLTFGGGTKVEIKR
EC50 [9]: 0.0529 nM
IC50 [M], viability of unedited HSCs with 100 ng/mL SCF, 5-7 days [10]: 2.21e-06 M
Kd [11]: 13.1 nM
koff [11]: 0.00408 s⁻¹
kon [11]: 312000 M⁻¹ s⁻¹

B10: ABTx308 (antibody, human IgG1, kappa, L234A L235A, V domains shown)
VH: B7 VH with R59K, G105A, E107D
VL: B7 VL
notes: Fc with LALADA
EC50 [15]: 0.398 nM
Kd [16]: 7.49 nM
Kd [17]: 8.48 nM
koff [17]: 0.0166 s⁻¹
kon [17]: 1.95e+06 M⁻¹ s⁻¹

B14: ABTx167 (antibody, human IgG1, kappa, L234A L235A)
heavy: QVQLVQSGAAVKKPGESLKISCKGSGYRFTSYWIGWVRQMPGKGLEWMGIIYPGDSDTRYSPSFQGQVTISAGKSISTAYLQWSSLKASDTAMYYCARHGRGYNGYEGAFDIWGQGTMVTVSSASTKGPSVFPLAPSSKSTSGGTAALGCLVKDYFPEPVTVSWNSGALTSGVHTFPAVLQSSGLYSLSSVVTVPSSSLGTQTYICNVNHKPSNTKVDKKVEPKSCDKTHTCPPCPAPEAAGGPSVFLFPPKPKDTLYITREPEVTCVVVAVSHEDPEVKFNWYVDGVEVHNAKTKPREEQYNSTYRVVSVLTVLHQDWLNGKEYKCKVSNKALPAPIEKTISKAKGQPREPQVYTLPPSRDELTKNQVSLTCLVKGFYPSDIAVEWESNGQPENNYKTTPPVLDSDGSFFLYSKLTVDKSRWQQGNVFSCSVMHEALHNHYTQKSLSLSPG
light: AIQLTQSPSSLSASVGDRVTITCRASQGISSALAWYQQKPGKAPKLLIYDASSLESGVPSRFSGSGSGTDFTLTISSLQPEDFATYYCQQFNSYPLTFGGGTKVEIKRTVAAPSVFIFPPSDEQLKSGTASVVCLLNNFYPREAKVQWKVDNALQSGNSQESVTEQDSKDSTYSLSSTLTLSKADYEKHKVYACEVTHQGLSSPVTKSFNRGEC
IC50 [M], viability of unedited HSCs with 100 ng/mL SCF, 5-7 days [10]: 2.56e-07 M

Continued, in another order:

binding result [8]: no binding
B6: ABTx252 (antibody, human IgG1, kappa, V domains shown)
VH: B7 VH
VL: B7 VL with S92N, Y94H

binding result [12]: no binding
Kd [13]: 3.16 nM
koff [13]: 0.00178 s⁻¹
kon [13]: 563000 M⁻¹ s⁻¹
binding result [14]: no binding
B8: ABTx052 variant VL_Y94H (antibody, human IgG1, V domains shown)
VH: B7 VH with D104N
VL: AIQLTQSPSSLSASVGDRVTITCRASQGISSALAWYQQKPGKAPKLLIYDASSLESGVPSRFSGSGSGTDFTLTISSLQPEDFATYYCQQFNSHPLTFGGGTKVEIK

binding result [12]: no binding
Kd [13]: 0.841 nM
koff [13]: 0.000635 s⁻¹
kon [13]: 755000 M⁻¹ s⁻¹
binding result [14]: no binding
B9: ABTx052 variant VL_N92Y (antibody, human IgG1, V domains shown)
VH: B7 VH with D104N
VL: B8 VL with N92Y, H94Y

binding result [12]: no binding
Kd [13]: 3.38 nM
koff [13]: 0.00218 s⁻¹
kon [13]: 643000 M⁻¹ s⁻¹
binding result [14]: no binding
B11: ABTx052 variant VL_Y94S (antibody, human IgG1, V domains shown)
VH: B7 VH with D104N
VL: B8 VL with H94S

binding result [12]: no binding
Kd [13]: 0.986 nM
koff [13]: 0.000713 s⁻¹
kon [13]: 723000 M⁻¹ s⁻¹
binding result [14]: no binding
B12: ABTx052 variant VH_R59K (antibody, human IgG1, V domains shown)
VH: B7 VH with R59K, D104N
VL: B7 VL with S92N

binding result [12]: no binding
Kd [13]: 0.683 nM
koff [13]: 0.000434 s⁻¹
kon [13]: 635000 M⁻¹ s⁻¹
binding result [14]: no binding
B13: ABTx052 variant VL_N92R (antibody, human IgG1, V domains shown)
VH: B7 VH with D104N
VL: B8 VL with N92R, H94Y

Kd [7]: 6.5 nM
Kd (Cyno CD117): 0.486 nM
B15: ABTx070 (antibody, human IgG1, kappa, V domains shown)
VH: EVQLVESGGGVVRPGGSLRLSCAASGFTFDDYGMSWVRQAPGKGLEWVSDINWNGGSTGYADSVKGRFTISRDNAKNSLYLQMNSLRAEDTALYYCARESWDGSGIYYMDVWGKGTTVTVSS
VL: DIVMTQSPSFLSASVGDRVTITCRASQGISSYLNWYQQKPGKAPKLLIYAASTLQNGVPSRFSGSGSGTDFTLTISSLQPEDFATYYCQQSYSTPITFGQGTRLEIKR
binding result [18]: no binding

Kd [7]: 0.523 nM
Kd (Cyno CD117): 4.28 nM
B16: ABTx071 (antibody, human IgG1, kappa, V domains shown)
VH: B15 VH with D50G, Y80H, D102N, G103Y, S104E, I106Y
VL: B15 VL with D1A, V3Q, N34A, D70E, S91L, Y92N, T94Y, I96Y, R103K
binding result [18]: no binding
